# Reference: paper PMC6912793
# Target: recombinant human integrin α5β1 (human) (UniProt P08648)
# UniProt P08648, sequence (P08648 42-1049, chain 1 of 2): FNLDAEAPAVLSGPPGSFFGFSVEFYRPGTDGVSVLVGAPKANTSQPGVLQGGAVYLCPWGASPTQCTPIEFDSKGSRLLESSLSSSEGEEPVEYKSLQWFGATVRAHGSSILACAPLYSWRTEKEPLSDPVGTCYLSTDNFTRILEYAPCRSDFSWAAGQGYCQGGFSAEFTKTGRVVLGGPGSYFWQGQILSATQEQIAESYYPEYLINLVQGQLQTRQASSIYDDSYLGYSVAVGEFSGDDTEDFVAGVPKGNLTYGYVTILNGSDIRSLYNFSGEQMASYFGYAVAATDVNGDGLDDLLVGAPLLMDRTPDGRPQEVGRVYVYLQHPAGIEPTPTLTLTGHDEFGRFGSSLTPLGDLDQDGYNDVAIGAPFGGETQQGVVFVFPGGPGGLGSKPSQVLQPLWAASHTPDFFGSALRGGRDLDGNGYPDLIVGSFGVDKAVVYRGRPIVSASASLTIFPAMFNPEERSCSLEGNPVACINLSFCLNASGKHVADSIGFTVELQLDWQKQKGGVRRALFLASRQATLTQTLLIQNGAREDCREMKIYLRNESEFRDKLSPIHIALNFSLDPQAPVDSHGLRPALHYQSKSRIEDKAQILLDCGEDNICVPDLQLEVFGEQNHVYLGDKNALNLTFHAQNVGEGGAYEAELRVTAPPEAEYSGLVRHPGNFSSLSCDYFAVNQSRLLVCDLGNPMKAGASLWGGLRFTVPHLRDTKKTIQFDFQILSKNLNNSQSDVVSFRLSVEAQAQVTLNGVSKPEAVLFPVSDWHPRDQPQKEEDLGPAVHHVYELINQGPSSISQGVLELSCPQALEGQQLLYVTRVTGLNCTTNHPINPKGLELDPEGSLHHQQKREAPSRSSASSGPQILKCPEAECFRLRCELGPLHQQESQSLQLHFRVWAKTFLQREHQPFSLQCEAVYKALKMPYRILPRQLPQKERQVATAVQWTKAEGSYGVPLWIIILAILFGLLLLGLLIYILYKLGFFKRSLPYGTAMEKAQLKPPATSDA
# UniProt P08648, sequence (P05556 21-728, chain 2 of 2, further chain): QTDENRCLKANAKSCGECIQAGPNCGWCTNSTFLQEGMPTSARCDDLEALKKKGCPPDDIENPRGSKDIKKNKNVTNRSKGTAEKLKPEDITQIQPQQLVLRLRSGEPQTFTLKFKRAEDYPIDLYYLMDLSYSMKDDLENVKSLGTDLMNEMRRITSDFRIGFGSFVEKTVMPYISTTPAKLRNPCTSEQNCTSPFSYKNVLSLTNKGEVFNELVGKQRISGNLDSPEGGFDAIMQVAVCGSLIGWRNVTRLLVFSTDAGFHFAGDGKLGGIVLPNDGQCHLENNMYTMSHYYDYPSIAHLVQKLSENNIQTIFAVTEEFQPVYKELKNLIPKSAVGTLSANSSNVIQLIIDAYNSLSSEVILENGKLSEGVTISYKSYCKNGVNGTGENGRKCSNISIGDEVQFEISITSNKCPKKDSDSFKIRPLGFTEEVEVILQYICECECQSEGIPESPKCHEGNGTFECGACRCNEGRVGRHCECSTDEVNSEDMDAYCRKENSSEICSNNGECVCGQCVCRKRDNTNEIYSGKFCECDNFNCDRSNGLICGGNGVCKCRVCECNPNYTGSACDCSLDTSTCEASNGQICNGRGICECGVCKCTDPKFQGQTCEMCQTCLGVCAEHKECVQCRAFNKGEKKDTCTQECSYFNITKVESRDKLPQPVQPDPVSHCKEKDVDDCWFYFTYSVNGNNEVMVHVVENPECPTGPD
substance,measurement,value
native PSG1 (pregnancy-specific glycoprotein 1) purified from the serum of pregnant women (from UniProt P11464 35-419) (natural protein),"reduction of adhesion of HTR8/SVneo cells to native PSG1 (30 μg/mL coated) by a neutralizing antibody to integrin α5, 21% oxygen",45%
same,"reduction of adhesion of HTR8/SVneo cells to native PSG1 (30 μg/mL coated) by a neutralizing antibody to integrin β1, 21% oxygen",90%
